The values below come from patent US20230357395A1 (MARENGO THERAPEUTICS, published 2023).

T1: Human NKp30, construct BKM0179 (human, UniProt O14931 19-135, limits assumed)
T1 construct: Immobilized on a CM5 chip via anti-mouse Fc antibody, so it likely carries a mouse Fc; also called Human Nkp30 (BKM0179)
T1 sequence (looked up): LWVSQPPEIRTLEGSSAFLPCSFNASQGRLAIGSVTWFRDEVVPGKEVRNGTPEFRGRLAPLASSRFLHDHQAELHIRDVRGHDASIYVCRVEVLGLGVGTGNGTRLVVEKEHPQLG

B1: BKM0313 (TRBC2/NKp30 bispecific) (bispecific antibody, human IgG1, kappa, N297A)
heavy: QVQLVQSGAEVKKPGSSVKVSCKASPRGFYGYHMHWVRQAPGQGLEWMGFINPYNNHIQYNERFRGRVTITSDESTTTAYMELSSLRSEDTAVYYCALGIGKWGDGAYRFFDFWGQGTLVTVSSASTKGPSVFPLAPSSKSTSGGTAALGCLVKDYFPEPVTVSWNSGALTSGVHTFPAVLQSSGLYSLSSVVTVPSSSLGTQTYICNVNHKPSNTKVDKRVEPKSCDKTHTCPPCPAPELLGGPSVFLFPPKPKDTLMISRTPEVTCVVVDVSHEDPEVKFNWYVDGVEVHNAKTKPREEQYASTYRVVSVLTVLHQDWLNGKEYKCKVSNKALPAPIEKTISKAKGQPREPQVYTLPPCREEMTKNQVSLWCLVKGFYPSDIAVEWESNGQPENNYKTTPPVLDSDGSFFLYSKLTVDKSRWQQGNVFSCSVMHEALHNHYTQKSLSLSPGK
light: DVVMTQSPLSLPVTLGQPASISCRSSKNLVHSNGRTYLQWYQQRPGQSPRLLIYRVSNRFPGVPDRFSGSGSGTDFTLKISRVEAEDVGVYFCSQSTREPYTFGGGTKVEIKRTVAAPSVFIFPPSDEQLKSGTASVVCLLNNFYPREAKVQWKVDNALQSGNSQESVTEQDSKDSTYSLSSTLTLSKADYEKHKVYACEVTHQGLSSPVTKSFNRGEC
scFv: EIQLLESGGGLVQPGGSLRLSCAVSGFSITTTGYHWNWVRQAPGKGLEWVGYIYSSGSTSYNPSLKSRFTISRDTSKNTFYLQMNSLRAEDTAVYYCARGDWHYFDYWGQGTMVTVSSGGGGSGGGGSGGGGSGGGGSDSVTTQSPLSLPVTLGQPASISCSGEKLSDKYVHWYQQRPGQSPRMLIYENDRRPSGVPDRFSGSNSGNDATLKISRVEAEDVGVYFCQFWDSTNSAVFGGGTKVEIKDKTHTCPPCPAPELLGGPSVFLFPPKPKDTLMISRTPEVTCVVVDVSHEDPEVKFNWYVDGVEVHNAKTKPREEQYASTYRVVSVLTVLHQDWLNGKEYKCKVSNKALPAPIEKTISKAKGQPREPQVCTLPPSREEMTKNQVSLSCAVKGFYPSDIAVEWESNGQPENNYKTTPPVLDSDGSFFLVSKLTVDKSRWQQGNVFSCSVMHEALHNHYTQKSLSLSPGK
notes: Knob chain TRBC2 Fab-Fc and hole chain NKp30 scFv-Fc; also called Anti-TRBC2-NKp30-BIS-9
B2: BKM0314 (TRBC2/NKp30 bispecific) (bispecific antibody, human IgG1, kappa, N297A)
heavy: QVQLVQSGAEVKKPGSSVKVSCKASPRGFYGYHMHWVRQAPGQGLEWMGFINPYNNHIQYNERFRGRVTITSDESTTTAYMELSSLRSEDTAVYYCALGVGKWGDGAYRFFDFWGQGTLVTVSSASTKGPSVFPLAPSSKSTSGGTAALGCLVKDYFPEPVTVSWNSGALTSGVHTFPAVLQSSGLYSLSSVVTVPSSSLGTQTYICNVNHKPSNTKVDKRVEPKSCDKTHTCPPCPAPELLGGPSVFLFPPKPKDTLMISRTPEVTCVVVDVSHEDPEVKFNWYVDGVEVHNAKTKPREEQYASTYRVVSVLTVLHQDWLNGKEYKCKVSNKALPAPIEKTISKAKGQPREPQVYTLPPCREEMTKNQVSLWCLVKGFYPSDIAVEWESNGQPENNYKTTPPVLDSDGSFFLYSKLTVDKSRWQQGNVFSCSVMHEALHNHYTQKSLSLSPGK
light: B1 light
scFv: B1 scFv
notes: Knob chain TRBC2 Fab-Fc and hole chain NKp30 scFv-Fc; also called Anti-TRBC2-NKp30-BIS-10
B3: BKM0140 (scFv)
scFv: EIQLLESGGGLVQPGGSLRLSCAVSGFSITTTGYHWNWVRQAPGKGLEWVGYIYSSGSTSYNPSLKSRFTISRDTSKNTFYLQMNSLRAEDTAVYYCARGDWHYFDYWGQGTMVTVSSGGGGSGGGGSGGGGSGGGGSSSETTQPPSVSVSPGQTASITCSGEKLSDKYVHWYQQKPGQSPVMVIYENDRRPSGIPERFSGSNSGNTATLTISGTQAMDEADYFCQFWASTNSAVFGGGTQLTVL
notes: also called BJM0407 VL-D92A
B4: BKM0145 (scFv)
scFv: B3 scFv with N62A, N232A
notes: also called BJM0407 VH-N60A-VL-D92A-N95A
B5: BKM0141 (scFv)
scFv: B3 scFv with A229D, N232A
notes: also called BJM0407 VL-N95A
B6: BKM0143 (scFv)
scFv: B3 scFv with N62A, A229D
notes: also called BJM0407 VH-N60A
B7: BKM0138 (scFv)
scFv: EIQLLESGGGLVQPGGSLRLSCAVSGFSITTTGYHWNWVRQAPGKGLEWVGYIYSSGSTSYNPSLKSRFTISRDTSKNTFYLQMNSLRAEDTAVYYCARGDWHYFDYWGQGTMVTVSSGGGGSGGGGSGGGGSGGGGSDSVTTQSPLSLPVTLGQPASISCSGEKLSDKYVHWYQQRPGQSPRMLIYENDRRPSGVPDRFSGSNSGNDATLKISRVEAEDVGVYFCQFWDSTASAVFGGGTKVEIK
notes: also called BJM0411 VL-N95A
B8: BKM0144 (scFv)
scFv: B7 scFv with N62A, D230A
notes: also called BJM0411 VH-N60A-VL-D92A-N95A
B9: BKM0142 (scFv)
scFv: B7 scFv with N62A, A233N
notes: also called BJM0411 VH-N60A
B10: BKM0139 (scFv)
scFv: B7 scFv with D230A, A233N
notes: also called BJM0411 VL-D92A
B11: BJM1078 (BJM0407 Parental) (antibody, V domains shown)
VH: EIQLLESGGGLVQPGGSLRLSCAVSGFSITTTGYHWNWVRQAPGKGLEWVGYIYSSGSTSYNPSLKSRFTISRDTSKNTFYLQMNSLRAEDTAVYYCARGDWHYFDYWGQGTMVTVSS
VL: SSETTQPPSVSVSPGQTASITCSGEKLSDKYVHWYQQKPGQSPVMVIYENDRRPSGIPERFSGSNSGNTATLTISGTQAMDEADYFCQFWDSTNSAVFGGGTQLTVL
B12: BJM1079 (BJM0411 Parental) (antibody, V domains shown)
VH: B11 VH
VL: DSVTTQSPLSLPVTLGQPASISCSGEKLSDKYVHWYQQRPGQSPRMLIYENDRRPSGVPDRFSGSNSGNDATLKISRVEAEDVGVYFCQFWDSTNSAVFGGGTKVEIK
B13: BJM0578 (bivalent) (antibody, V domains shown)
VH: QVQLVQSGAEVKKPGSSVKVSCKASGYTFTGYVMHWVRQAPGQGLEWMGFIIPIFGTANYAQKFQGRVTITSDKSTTTAYMELSSLRSEDTAVYYCARGAGYNFDGAYRFFDFWGQGTLVTVSS
VL: DVVMTQSPLSLPVTLGQPASISCRSSQRLVHSNGNTYLHWYQQRPGQSPRLLIYRVSNRFPGVPDRFSGSGSGTDFTLKISRVEAEDVGVYFCSQSTHVPYTFGGGTKVEIK
notes: Bivalent construct with a human Fc
B14: BKM0193 (single arm) (antibody, V domains shown)
VH: B13 VH
VL: B13 VL with G34A, T36A
notes: Single arm anti-TRBC1 construct with human Fc; also called G29A T31A
B15: BKM0196 (single arm) (antibody, V domains shown)
VH: B13 VH
VL: B13 VL with N33G, N35S
notes: Single arm anti-TRBC1 construct with human Fc; also called N28G N30S
B16: BIM0460 (bivalent) (antibody, V domains shown)
VH: QVQLVQSGAEVKKPGSSVKVSCKASGYTFTGYVMHWVRQAPGQGLEWMGFINPYNDDIQSNERFRGRVTITSDKSTTTAYMELSSLRSEDTAVYYCARGAGYNFDGAYRFFDFWGQGTLVTVSS
VL: B13 VL
notes: Bivalent construct with a human Fc (captured via anti-human Fc antibody)
B17: BKM0195 (single arm) (antibody, V domains shown)
VH: B13 VH
VL: B13 VL with N35S
notes: Single arm anti-TRBC1 construct with human Fc; also called N30S
B18: BKM0192 (single arm) (antibody, V domains shown)
VH: B13 VH
VL: B13 VL with T36A
notes: Single arm anti-TRBC1 construct with human Fc; also called T31A
B19: BKM0191 (single arm) (antibody, V domains shown)
VH: B13 VH
VL: B13 VL with G34A
notes: Single arm anti-TRBC1 construct with human Fc; also called G29A
B20: BKM0194 (single arm) (antibody, V domains shown)
VH: B13 VH
VL: B13 VL with N33G
notes: Single arm anti-TRBC1 construct with human Fc; also called N28G

Residue numbers refer to the chain shown, from its start. In names and notes the source's numbering stands.

T4 sequence (P01850 1-129 limits assumed): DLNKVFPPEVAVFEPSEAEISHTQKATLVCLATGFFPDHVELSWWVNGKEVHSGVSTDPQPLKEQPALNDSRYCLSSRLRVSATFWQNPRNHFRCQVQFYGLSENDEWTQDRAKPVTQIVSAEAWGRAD
T3 sequence (A0A5B9 1-129 limits assumed): as the sequence (P01850 1-129 limits assumed) above, with N3K, K4N, E9K, F36Y counted along it
T2 sequence (A0A5B9 1-129 limits assumed): as the sequence (P01850 1-129 limits assumed) above, with N3K, K4N, E9K, F36Y counted along it

One experiment concerns the target T2, human TRBC2 (construct not named) (human, UniProt A0A5B9 1-129, limits assumed).
T2 construct: also called hTRBC2
Briefly: SPR, bispecific captured via anti-human Fc on CM5, hTRBC2 from 125 nM in two-fold dilutions, 1:1 fit. As to the method: In this example, surface plasmon resonance assay was performed to check binding of anti-TRBC2xNKp30 bispecific antibodies (bispecifics) to either hTRBC2, hTRBC1 or hNKp30 proteins. […] The bispecific antibodies may or may not have an N297A mutation in their Fc regions. FIG. 31B represents a design for monovalent TRBC2 control. Briefly, TRBC2xNKp30 bispecifics at 2 ug/mL were immobilized on CM5 chip via anti-human Fc antibody to 70 RU. Human TRBC2 or human TRBC1 antigens were diluted to 125 nM and then serially diluted two-fold. Association was 300 seconds and dissociation were 600 seconds. This assay was run in 1 x HBS-EP+ Buffer pH 7.4 and 25 C. The data was fit using a 1:1 binding model assess binding of bispecifics to NKp30, human NKp30 at 2 ug/mL was immobilized on CM5 chip via Anti-mouse Fc antibody to 70 RU. TRBC2xNKp30 bispecifics were diluted to 50 nM and then serially diluted two-fold. Association was 300 seconds and dissociation were 600 seconds. This assay was run in 1 x HBS-EP+ Buffer pH 7.4 and 25 C. The data was fit using a 1:1 binding model.
With B1, the Kd came out at 148 nM.
Molecule B2 displayed a dissociation constant (Kd) of 92 nM.

In another experiment the target is T1, Human NKp30, construct BKM0179. In words: SPR (BIAcore T200), human NKp30 BKM0179 captured via anti-mouse Fc on CM5, antibody injected 3.9-125 nM, 1:1 fit. The procedure:
In this example, a series of exemplary anti-NKp30 antibody molecules were analyzed for their binding affinity for NKp30. Briefly, surface plasmon resonance (SPR) measurements were performed by using the BIAcore T200. Human NKp30 (BKM0179) was immobilized on a CM5 chip via anti-mouse Fc antibody to a response of 50 RU. […] The data was fit using a 1:1 binding model.
B3 registered a Kd of 3.3 nM.
In turn, B4 showed a Kd of 4.2 nM.
Same read-out and setting: then B5, with 3 nM.
With B6, the Kd came to 1.45 nM.
On to B7, for which the affinity, expressed as Kd, was 3.2 nM.
On the same count and under the same terms, under B8 stands 6.4 nM; under B9, 1.28 nM; under B10, 3.2 nM.
Same read-out and setting: under B11 stands 1.48 nM; under B12, 1.26 nM.

A further experiment addresses T3, human TRBC2 (hTRBC2), construct BIM0445 (human, UniProt A0A5B9 1-129, limits assumed).
T3 construct: also called BIM0445 (hTRBC2)
In words: SPR (BIAcore T200), antibody captured via anti-human Fc.
Turning to B13, the binding result is listed as “no binding”.
On the same count and under the same terms, under B14 stands “no binding”.
Same read-out and setting: under B15 stands “no binding”.
The same measure, in the same setting: under B16 stands “no binding”; under B17, “no binding”; under B18, “no binding”.
Take B19: the binding result was “no binding”.
For the molecule B20, the binding result is on record as “no binding”.

Another experiment addresses T4, human TRBC1 (hTRBC1), construct BIM0443 (human, UniProt P01850 1-129, limits assumed).
T4 construct: also called Human TRBC1 (BIM0443); BIM0443 (hTRBC1)
Briefly: SPR (BIAcore T200), antibody captured via anti-human Fc on CM5, hTRBC1 BIM0443 injected 15.6-500 nM, 1:1 fit. The procedure:
In this example, a series of exemplary anti-TRBC1 antibody molecules were analyzed for their binding affinity for TRBC1. Briefly, surface plasmon resonance (SPR) measurements were performed by using the BIAcore T200. Each of the exemplary anti-TRBC1 antibody constructs was immobilized on a CM5 chip via anti-human Fc antibody to a response of 50 RU. […] The data was fit using a 1:1 binding model.
As to B13, the Kd stood at 75 nM.
B14: the dissociation constant Kd came to 360 nM.
The same measure, in the same setting: then B15, with 690 nM.
On the same count and under the same terms, under B16 stands 10 nM.
Same read-out and setting: then B17, with 317 nM; and B18, with 138 nM.
On to B19, for which the dissociation constant (Kd) was determined as 75 nM.
The same measure, in the same setting: under B20 stands 180 nM.
